One substance from paper PMC7327021 can be followed below.

The experiment has as its target CTD1, C-terminal domain of major ampullate spidroin 1 of Latrodectus hesperus (Latrodectus hesperus). The experiment in a line: non-reducing SDS-PAGE; non-reducing SDS-PAGE of fractions of the Ni-IMAC purification of CTD1; disulphide-linked dimer.

Usually stoichiometry N stands for the number of molecules, sites or subunits per partner or assembly.

“CTD1, C-terminal domain of major ampullate spidroin 1 of Latrodectus hesperus (domain or fragment)” returned a stoichiometry N of 2.
